Data reported in patent US20160129086A1.

Molecular target: CD20 on human lymphoma cells (Daudi, Jeko-1) (UniProt P11836)
Assay: cell-based or functional assay

Sequence of CD20 on human lymphoma cells (Daudi, Jeko-1) (P11836 whole entry): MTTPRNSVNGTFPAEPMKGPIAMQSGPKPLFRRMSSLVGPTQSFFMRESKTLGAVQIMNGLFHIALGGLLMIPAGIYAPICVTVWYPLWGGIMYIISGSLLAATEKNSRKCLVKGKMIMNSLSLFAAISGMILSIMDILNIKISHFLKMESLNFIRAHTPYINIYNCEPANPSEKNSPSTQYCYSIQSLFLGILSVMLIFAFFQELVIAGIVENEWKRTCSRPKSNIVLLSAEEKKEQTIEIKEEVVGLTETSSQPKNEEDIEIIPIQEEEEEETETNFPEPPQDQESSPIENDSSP

Row | Substance | EC50, high-concentration response, in vitro proliferation of Jeko-1 cells [pM] | EC50, low-concentration response, in vitro proliferation of Jeko-1 cells [pM] | EC50, in vitro proliferation of Jeko-1 cells [pM]
1 | 20-2b (from UniProt P01563 24-188) | 850 | 0.97 | 
2 | veltuzumab (antibody) |  |  | 1500
